In patent publication US20120020975A1:
One block for each binder: values may come before it.

Experiments:
[1] = target: human PCSK9 (proprotein convertase subtilisin kexin type 9), mature form (human) (UniProt Q8NBP7); assay: BIAcore SPR, pH 6.0
[2] = target: human PCSK9 (proprotein convertase subtilisin kexin type 9), mature form (human) (UniProt Q8NBP7); assay: BIAcore SPR, antibody amine-coupled to CM5 chip, PCSK9 as analyte, pH 7.4
[3] = target: human PCSK9 (proprotein convertase subtilisin kexin type 9), mature form (human) (UniProt Q8NBP7); assay: KinExA solution equilibrium, PCSK9-coated beads
[4] = target: human PCSK9 (proprotein convertase subtilisin kexin type 9), mature form (human) (UniProt Q8NBP7); assay: BIAcore SPR, pH 7.4
[5] = target: human PCSK9 (proprotein convertase subtilisin kexin type 9), mature form (human) (UniProt Q8NBP7); assay: BIAcore solution equilibrium binding assay, free PCSK9 read on immobilized 21B12

Kd [1]: 0.029 nM | koff [1]: 7.01e-05 s⁻¹ | kon [1]: 2.39e+06 M⁻¹ s⁻¹ | Kd [2]: 0.47 nM | Kd [3]: 0.015 nM | Kd [4]: 0.47 nM | koff [4]: 4.98e-05 s⁻¹ | kon [4]: 106000 M⁻¹ s⁻¹
B1: 16F12, anti-PCSK9 huIgG4 (antibody, V domains shown)
VH: QVHLVESGGGVVQPGRSLRLSCAASGFTFNSFGMHWVRQAPGKGLEWVALIWSDGSDEYYADSVKGRFTISRDNSKNTLYLQMNSLRAEDTAVYYCARAIAALYYYYGMDVWGQGTTVTVSS
VL: QSVLTQPPSVSAAPGQKVTISCSGSSSNIGNNFVSWYQQLPGTAPKLLIYDYNKRPSGIPDRFSGSKSGTSATLGITGLQTGDEADYYCGTWDSSLSAYVFGTGTRVTVLQ

Kd [1]: 0.0073 nM | koff [1]: 1.68e-05 s⁻¹ | kon [1]: 2.29e+06 M⁻¹ s⁻¹ | Kd [2]: 0.19 nM | Kd [4]: 0.19 nM | koff [4]: 6.63e-06 s⁻¹ | kon [4]: 34900 M⁻¹ s⁻¹ | Kd [5]: 0.015 nM
B2: 21B12, anti-PCSK9 huIgG4 (antibody, V domains shown)
VH: QVQLVQSGAEVKKPGASVKVSCKASGYTLTSYGISWVRQAPGQGLEWMGWVSFYNGNTNYAQKLQGRGTMTTDPSTSTAYMELRSLRSDDTAVYYCARGYGMDVWGQGTTVTVSS
VL: QSALTQPASVSGSPGQSITISCTGTSSDVGGYNSVSWYQQHPGKAPKLMIYEVSNRPSGVSNRFSGSKSGNTASLTISGLQAEDEADYYCNSYTSTSMVFGGGTKLTVLQ
